# Data taken from patent US20060241051A1 (Takeda / Millennium, published 2006).
# Square brackets hold non-standard residues; d marks the D form. Ends that are not written are not given here. * marks the point of attachment. Phe(3,4-Cl2) = N[C@@H](Cc1ccc(Cl)c(Cl)c1)C(=O)O; Propanoyl(3-(3-pyridyl)) = O=C(CCc1cccnc1)*; Phe(4-NH2) = Nc1ccc(C[C@H](N)C(=O)O)cc1; Arg(Me) = CNC(=N)NCCC[C@H](N)C(=O)O; Bta = N[C@@H](Cc1csc2ccccc12)C(=O)O; Fmoc = O=C(OCC1c2ccccc2-c2ccccc21)*; 4Pal = N[C@@H](Cc1ccncc1)C(=O)O; d4Pal = N[C@H](Cc1ccncc1)C(=O)O; Cha = N[C@@H](CC1CCCCC1)C(=O)O; Abu = CC[C@H](N)C(=O)O; azaGly = NNC(=O)O
# B1: Compound No. 286: [D-Tyr1,Pya(4) 3,AzaGly7,Arg(Me)9]MS10 (peptide)
# peptide: [dY]N[4Pal]NSF[azaGly]L[Arg(Me)]F-NH2
# B2: Compound No. 303: [D-Tyr1,D-Asn2,Pya(4) 3,AzaGly7,Arg(Me)9]MS10 (peptide)
# peptide: [dY][dN][4Pal]NSF[azaGly]L[Arg(Me)]F-NH2
# B3: Compound No. 305: des(1)-[D-Tyr2,D-Pya(4) 3,AzaGly7,Arg(Me)9]MS10 (peptide)
# peptide: [dY][d4Pal]NSF[azaGly]L[Arg(Me)]F-NH2
# modifications: N-terminus assumed
# SMILES: CNC(=N)NCCC[C@H](NC(=O)[C@H](CC(C)C)NC(=O)NNC(=O)[C@H](Cc1ccccc1)NC(=O)[C@H](CO)NC(=O)[C@H](CC(N)=O)NC(=O)[C@@H](Cc1ccncc1)NC(=O)[C@H](N)Cc1ccc(O)cc1)C(=O)N[C@@H](Cc1ccccc1)C(N)=O
# notes: also called KiSS305; KiSS1-305
# B4: Compound No. 322: des(1-3)-3-Pyridylpropionyl-[AzaGly7,Arg(Me)9]MS10 (peptide)
# peptide: {Propanoyl(3-(3-pyridyl))}-NSF[azaGly]L[Arg(Me)]F-NH2
# SMILES: CNC(=N)NCCC[C@H](NC(=O)[C@H](CC(C)C)NC(=O)NNC(=O)[C@H](Cc1ccccc1)NC(=O)[C@H](CO)NC(=O)[C@H](CC(N)=O)NC(=O)CCc1cccnc1)C(=O)N[C@@H](Cc1ccccc1)C(N)=O
# notes: also called KiSS322; KiSS1-322
# B5: Compound No. 323: des(1-3)-4-Imidazoleacetyl-[AzaGly7,Arg(Me)9]MS10 (peptide)
# peptide: {4‑Imidazoleacetyl}-NSF[azaGly]L[Arg(Me)]F-NH2
# B6: Compound No. 134: [Trp10]MS10 (peptide)
# peptide: YNWNSFGLRW-NH2
# B7: Compound No. 169: [D-Tyr1,Ala3,Arg(Me)9]MS10 (peptide)
# peptide: [dY]NANSFGL[Arg(Me)]F-NH2
# modifications: N-terminus assumed
# SMILES: CNC(=N)NCCC[C@H](NC(=O)[C@H](CC(C)C)NC(=O)CNC(=O)[C@H](Cc1ccccc1)NC(=O)[C@H](CO)NC(=O)[C@H](CC(N)=O)NC(=O)[C@H](C)NC(=O)[C@H](CC(N)=O)NC(=O)[C@H](N)Cc1ccc(O)cc1)C(=O)N[C@@H](Cc1ccccc1)C(N)=O
# B8: Compound No. 170: [D-Tyr1,Ser3,Arg(Me)9]MS10 (peptide)
# peptide: [dY]NSNSFGL[Arg(Me)]F-NH2
# modifications: N-terminus assumed
# SMILES: CNC(=N)NCCC[C@H](NC(=O)[C@H](CC(C)C)NC(=O)CNC(=O)[C@H](Cc1ccccc1)NC(=O)[C@H](CO)NC(=O)[C@H](CC(N)=O)NC(=O)[C@H](CO)NC(=O)[C@H](CC(N)=O)NC(=O)[C@H](N)Cc1ccc(O)cc1)C(=O)N[C@@H](Cc1ccccc1)C(N)=O
# B9: Compound No. 174: [D-Tyr1,Arg(Me)9,Trp10]MS10 (peptide)
# peptide: [dY]NWNSFGL[Arg(Me)]W-NH2
# modifications: N-terminus assumed
# SMILES: CNC(=N)NCCC[C@H](NC(=O)[C@H](CC(C)C)NC(=O)CNC(=O)[C@H](Cc1ccccc1)NC(=O)[C@H](CO)NC(=O)[C@H](CC(N)=O)NC(=O)[C@H](Cc1c[nH]c2ccccc12)NC(=O)[C@H](CC(N)=O)NC(=O)[C@H](N)Cc1ccc(O)cc1)C(=O)N[C@@H](Cc1c[nH]c2ccccc12)C(N)=O
# B10: Compound No. 131: [Phe(4NH2)10]MS10 (peptide)
# peptide: YNWNSFGLR[Phe(4-NH2)]-NH2
# B11: Compound No. 133: [Nal(1)10]MS10 (peptide)
# peptide: YNWNSFGLRX
# modifications: Nal(1)10; C-terminal amide
# B12: Compound No. 143: [D-Trp3,Arg(Me)9]MS10 (peptide)
# peptide: YN[dW]NSFGL[Arg(Me)]F-NH2
# B13: Compound No. 144: des(1-3)-Fmoc-[Arg(Me)9]MS10 (peptide)
# peptide: Fmoc-NSFGL[Arg(Me)]F-NH2
# B14: Compound No. 151: [Nal(1)6]MS10 (peptide)
# peptide: YNWNSXGLRF
# modifications: Nal(1)6; C-terminal amide
# B15: Compound No. 152: [Nal(2)6]MS10 (peptide)
# peptide: YNWNSXGLRF
# modifications: Nal(2)6; C-terminal amide
# B16: Compound No. 156: [Cha6]MS10 (peptide)
# peptide: YNWNSXGLRF
# modifications: Cha6; C-terminal amide
# B17: Compound No. 171: [D-Tyr1,Cha3,Arg(Me)9]MS10 (peptide)
# peptide: [dY]N[Cha]NSFGL[Arg(Me)]F-NH2
# modifications: N-terminus assumed
# SMILES: CNC(=N)NCCC[C@H](NC(=O)[C@H](CC(C)C)NC(=O)CNC(=O)[C@H](Cc1ccccc1)NC(=O)[C@H](CO)NC(=O)[C@H](CC(N)=O)NC(=O)[C@H](CC1CCCCC1)NC(=O)[C@H](CC(N)=O)NC(=O)[C@H](N)Cc1ccc(O)cc1)C(=O)N[C@@H](Cc1ccccc1)C(N)=O
# B18: Compound No. 182: [D-Tyr1,Cha3,6,Arg(Me)9,Trp10]MS10 (peptide)
# peptide: [dY]N[Cha]NS[Cha]GL[Arg(Me)]W-NH2
# modifications: N-terminus assumed
# SMILES: CNC(=N)NCCC[C@H](NC(=O)[C@H](CC(C)C)NC(=O)CNC(=O)[C@H](CC1CCCCC1)NC(=O)[C@H](CO)NC(=O)[C@H](CC(N)=O)NC(=O)[C@H](CC1CCCCC1)NC(=O)[C@H](CC(N)=O)NC(=O)[C@H](N)Cc1ccc(O)cc1)C(=O)N[C@@H](Cc1c[nH]c2ccccc12)C(N)=O
# B19: Compound No. 187: [Abu8]MS10 (peptide)
# peptide: YNWNSFG[Abu]RF-NH2
# modifications: N-terminus assumed
# SMILES: CC[C@H](NC(=O)CNC(=O)[C@H](Cc1ccccc1)NC(=O)[C@H](CO)NC(=O)[C@H](CC(N)=O)NC(=O)[C@H](Cc1c[nH]c2ccccc12)NC(=O)[C@H](CC(N)=O)NC(=O)[C@@H](N)Cc1ccc(O)cc1)C(=O)N[C@@H](CCCNC(=N)N)C(=O)N[C@@H](Cc1ccccc1)C(N)=O
# B20: Compound No. 189: [Ala(3-Bzt)10]MS10 (peptide)
# peptide: YNWNSFGLR[Bta]-NH2
# modifications: N-terminus assumed
# SMILES: CC(C)C[C@H](NC(=O)CNC(=O)[C@H](Cc1ccccc1)NC(=O)[C@H](CO)NC(=O)[C@H](CC(N)=O)NC(=O)[C@H](Cc1c[nH]c2ccccc12)NC(=O)[C@H](CC(N)=O)NC(=O)[C@@H](N)Cc1ccc(O)cc1)C(=O)N[C@@H](CCCNC(=N)N)C(=O)N[C@@H](Cc1csc2ccccc12)C(N)=O
# B21: Compound No. 190: [D-Tyr1,Cha3,AzaGly7,Arg(Me)9]MS10 (peptide)
# peptide: [dY]N[Cha]NSF[azaGly]L[Arg(Me)]F-NH2
# modifications: N-terminus assumed
# SMILES: CNC(=N)NCCC[C@H](NC(=O)[C@H](CC(C)C)NC(=O)NNC(=O)[C@H](Cc1ccccc1)NC(=O)[C@H](CO)NC(=O)[C@H](CC(N)=O)NC(=O)[C@H](CC1CCCCC1)NC(=O)[C@H](CC(N)=O)NC(=O)[C@H](N)Cc1ccc(O)cc1)C(=O)N[C@@H](Cc1ccccc1)C(N)=O
# B22: Compound No. 199: [Phe(3,4Cl2)10]MS10 (peptide)
# peptide: YNWNSFGLR[Phe(3,4-Cl2)]-NH2
# B23: Compound No. 141: [D-Tyr1,Arg(Me)9]MS10 (peptide)
# peptide: [dY]NWNSFGL[Arg(Me)]F-NH2
# Target: T1, human OT7T175 (metastin receptor) (human, UniProt Q969F8 1-398)
# Assay: cell-based or functional assay
# T1 sequence (Q969F8 whole entry L364H): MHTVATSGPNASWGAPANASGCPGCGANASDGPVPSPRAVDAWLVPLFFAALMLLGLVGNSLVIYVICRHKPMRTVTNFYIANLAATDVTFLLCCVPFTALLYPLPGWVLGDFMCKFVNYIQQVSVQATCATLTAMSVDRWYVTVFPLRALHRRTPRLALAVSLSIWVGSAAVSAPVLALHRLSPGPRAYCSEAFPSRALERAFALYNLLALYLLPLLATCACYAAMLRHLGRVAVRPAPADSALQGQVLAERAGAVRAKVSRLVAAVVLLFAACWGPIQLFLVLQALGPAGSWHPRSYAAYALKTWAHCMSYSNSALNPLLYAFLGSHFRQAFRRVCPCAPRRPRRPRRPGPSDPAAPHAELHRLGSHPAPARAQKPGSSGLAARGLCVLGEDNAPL
row,Molecule,intracellular Ca ion level-increasing activity (FLIPR)
1,B1,2 specific activity to metastin (1-54)

# Target: human OT7T175 (metastin receptor) (human) (UniProt Q969F8)
# Assay: FMAT competition with Cy-5-labeled metastin (40-54), hOT7T175-expressed CHO cells
# Sequence of human OT7T175 (metastin receptor) (human) (Q969F8 whole entry L364H): as above
row,Molecule,IC50 [nM]
1,"Compound No. 238: [D-Tyr1,D-Asn2,D-Trp3,AzaGly7,Arg(Me)9]MS10 (peptide)",49

# Target: T1, human OT7T175 (metastin receptor)
# Assay: cell-based or functional assay
# Remark: another data set of the same source
row,Molecule,intracellular Ca ion level-increasing activity (FLIPR)
1,B2,5 specific activity to metastin (1-54)
2,B3,5 specific activity to metastin (1-54)
3,B4,1 specific activity to metastin (1-54)
4,B5,1 specific activity to metastin (1-54)

# Target: T1, human OT7T175 (metastin receptor)
# Assay: cell-based or functional assay
# Remark: another data set of the same source
row,Molecule,intracellular Ca ion level-increasing activity (FLIPR)
1,B6,30 specific activity to metastin (1-54)
2,B7,2 specific activity to metastin (1-54)
3,B8,1 specific activity to metastin (1-54)
4,B9,10 specific activity to metastin (1-54)
5,B10,3 specific activity to metastin (1-54)
6,B11,3 specific activity to metastin (1-54)
7,B12,3 specific activity to metastin (1-54)
8,B13,1 specific activity to metastin (1-54)
9,B14,1 specific activity to metastin (1-54)
10,B15,5 specific activity to metastin (1-54)
11,B16,2 specific activity to metastin (1-54)
12,B17,10 specific activity to metastin (1-54)
13,B18,5 specific activity to metastin (1-54)
14,B19,1 specific activity to metastin (1-54)
15,B20,10 specific activity to metastin (1-54)
16,B21,10 specific activity to metastin (1-54)
17,B22,3 specific activity to metastin (1-54)

# Target: T1, human OT7T175 (metastin receptor)
# Assay: FMAT competition with Cy-5-labeled metastin (40-54), hOT7T175-expressed CHO cells
row,Molecule,IC50 [nM]
1,B6,110
2,B7,160
3,B8,260
4,B9,420
5,B1,17
6,B2,0.5
7,B3,1.3
8,B4,54
9,B5,280
10,B10,120
11,B11,330
12,B12,7.7
13,B14,300
14,B15,180
15,B16,49
16,B17,110
17,B18,98
18,B19,720
19,B20,230
20,B21,12
21,B22,470

# Target: T1, human OT7T175 (metastin receptor)
# Assay: cell-based or functional assay
# Remark: another data set of the same source
row,Molecule,"cell growth inhibition activity, IC50 [nM]"
1,B1,18.3
2,B2,41.2
3,B3,8.94
4,B4,71.9
5,B23,87
